Seven substances from patent publication US20170362341A1 can be followed below.

Assay [1] has as its target CD-30 on Karpas 299 and L540 cells (UniProt P28908). The assay can be described thus: flow cytometry on L540 cells, one site-total binding fit. Background: In flow cytometry, cells or beads pass a laser one at a time.
Assay [2] has the same target. The assay can be described thus: flow cytometry on Karpas 299 cells, one site-total binding fit.
The target is the same in assay [3]. The assay can be described thus: FACS-based cell binding on L540 cells, Alexa-488 goat anti-human IgG detection, MFI normalised to the averaged maximum (% binding).
Assay [4] has the same target. The assay can be described thus: FACS-based cell binding on Karpas 299 cells, Alexa-488 goat anti-human IgG detection, MFI normalised to the averaged maximum (% binding).
The target of assay [5] is HER2 on SKBR3 cells (UniProt P04626). The assay can be described thus: flow cytometry on SKBR3 cells, one site specific binding fit; column head prints 'Cell Binding IC50, nM' (heads of c3 and c4 seem swapped).
For assay [6] the target is unchanged. The assay is described as follows: flow cytometry on SKBR3 cells.

Sequence of UniProt P28908 (P28908 19-595 limits assumed): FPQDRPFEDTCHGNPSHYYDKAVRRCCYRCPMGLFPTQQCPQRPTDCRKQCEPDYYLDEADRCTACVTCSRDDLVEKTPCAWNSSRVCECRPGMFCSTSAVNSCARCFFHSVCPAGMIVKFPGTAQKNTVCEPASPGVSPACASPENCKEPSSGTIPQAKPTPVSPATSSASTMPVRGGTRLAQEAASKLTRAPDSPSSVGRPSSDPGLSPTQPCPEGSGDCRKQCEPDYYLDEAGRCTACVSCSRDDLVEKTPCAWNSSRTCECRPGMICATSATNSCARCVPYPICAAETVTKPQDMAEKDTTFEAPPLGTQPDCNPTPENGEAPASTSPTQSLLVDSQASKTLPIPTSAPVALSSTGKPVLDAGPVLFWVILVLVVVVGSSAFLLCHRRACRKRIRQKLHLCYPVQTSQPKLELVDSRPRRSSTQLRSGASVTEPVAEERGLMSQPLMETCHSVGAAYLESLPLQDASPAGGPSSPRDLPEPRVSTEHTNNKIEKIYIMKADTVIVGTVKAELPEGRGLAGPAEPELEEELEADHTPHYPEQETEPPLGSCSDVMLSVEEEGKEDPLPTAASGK

As to “Aglycosylated Brentuximab IgG HC-F404 conjugated to DBCO-MMAF 2 (antibody)”, the values for the Kd in assay [1] and in assay [2] were 810 pM and 460 pM, respectively. For the same substance, the results for the EC50 (read off the curve) in assay [3] and in assay [4] were 700 pM and 300 pM, respectively.
Substance “Adcetris HC F404 unconjugated (antibody)” came in with a 50% effective concentration (EC50 (read off the curve)) in assay [3] of 1000 pM. This counts as single-digit nanomolar.
In turn, “Trastuzumab scFv (VL_VH) with pN3F at position (-1), conjugated to DBCO-MMAF” yielded a Kd in assay [5] of 14000 pM. This lies in the double-digit nanomolar range.
In the case of “Trastuzumab scFv-Fc (-1) pN3F conjugated to DBCO-MMAF (Fc fusion)”, the dissociation constant (Kd) in assay [6] was found to be 6800 pM.
Take “Aglycosylated Brentuximab IgG HC-K121 conjugated to DBCO-MMAF 2 (antibody)”: the dissociation constant Kd in assay [1] was determined as 1300 pM; in assay [2], 520 pM. The substance further returned a half-maximal effective concentration (EC50 (read off the curve)) in assay [4] of 400 pM.
Substance “Adcetris HC K121 unconjugated (antibody)” registered a concentration giving a half-maximal response (EC50 (read off the curve)) in assay [3] of 800 pM.
Consider “Aglycosylated Brentuximab IgG LC-N152 conjugated to DBCO-MMAF 2 (antibody)”, for which the Kd was 1000 pM in assay [1] and 500 pM in assay [2]. Besides, the figures for the EC50 (read off the curve) in assay [3] and in assay [4] were 600 pM and 400 pM, respectively.

Broadly, the Kd is the free concentration of one partner at which half of the binding sites on the other are occupied at equilibrium, for simple one-to-one binding. Broadly, the EC50 (read off the curve) is the concentration needed to bring the measured effect to its halfway point.
